# Results: patent publication US20250009780A1, “AGENTS ENCODING CLDN6 AND CD3 BINDING ELEMENTS FOR TREATING CLDN6-POSITIVE CANCERS” (BIONTECH SE, priority 2021, published 2025)
# Where “and” joins values, the source holds several entries; their conditions need not be identical. Identical values can stand only once.
# Experiments:
# [1] = Single-dose PK study of BNT142 in cynomolgus monkeys
# simian CD3 = target: T1, simian CD3 (Macaca fascicularis, UniProt Q95LI5); assay: Flow cytometric binding assay, cynomolgus monkey PBMCs; settings: 10 μg/mL
# T1 construct: endogenous in cells; host or cells: cynomolgus monkey PBMCs (T cells)
# T1 sequence (Q95LI5 22-198): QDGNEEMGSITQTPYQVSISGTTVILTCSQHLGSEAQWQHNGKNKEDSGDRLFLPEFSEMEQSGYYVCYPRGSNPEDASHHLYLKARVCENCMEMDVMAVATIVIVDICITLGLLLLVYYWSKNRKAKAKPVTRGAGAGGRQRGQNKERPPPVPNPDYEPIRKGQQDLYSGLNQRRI
# T1 sequence (Q95LI8 22-171 partner): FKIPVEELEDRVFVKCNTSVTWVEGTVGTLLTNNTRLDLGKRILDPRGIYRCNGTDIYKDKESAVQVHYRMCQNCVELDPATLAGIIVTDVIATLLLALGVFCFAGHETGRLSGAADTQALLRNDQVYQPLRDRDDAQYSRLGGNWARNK
# T1 sequence (Q95LI7 23-181 partner): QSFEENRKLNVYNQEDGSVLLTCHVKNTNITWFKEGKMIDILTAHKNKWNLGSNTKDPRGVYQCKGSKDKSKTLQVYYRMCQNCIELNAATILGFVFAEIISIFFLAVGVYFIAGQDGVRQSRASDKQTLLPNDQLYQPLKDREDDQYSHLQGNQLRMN
# Excerpt: (§1) Cells were first gated for singlets followed by gating for viable lymphocytes (PBMCs) or viable HEK-293T-17 cells. […] Cynomolgus monkey or human PBMCs and HEK-293T-17 transductants stably expressing luciferase (HEK-293T-17_mock), CLDN3, 4, 6 or 9 served as target cells as indicated. The dotted vertical line marks the peak position of unstained populations.
# [2] = cynomolgus monkey, in vivo
# human PBMCs = assay: In vitro human cytokine release (multiplex ELISA on T-cell activation assay supernatants); assay type: cell-based
# Procedure: Cytokine concentration values for each donor (means of technical triplicates) are shown. Filled symbols represent values with target cells while open symbols represent values without target cells.
# Cell culture supernatants obtained from the T-cell activation assay were analyzed to investigate the RiboMab02.1-dependent induction of on- and off-target cytokine release. The levels of human pro-inflammatory cytokines IFN-γ, IL-1β, IL-2, IL-6, IL-10 and TNF-α were measured using a customized multiplex ELISA kit.
# [3] = Repeated-dose PK study of BNT142 in mice; assay type: in vivo, Balb/cJRj mice
# Procedure: Female Balb/cJRj mice (n=4) were injected IV with 10 or 30 μg BNT142 or 30 μg Luc_RNA-LNP as control once weekly for a total of five administrations at the time points indicated by the horizontal dotted lines. Blood was drawn from mice at baseline (0 h), 6 h after (6, 174, 342, 510, and 678 h) and 24 h before (144, 312, 480, and 648 h) each BNT142 or saline administration, respectively. A final blood draw was done 816 h after the first BNT142/saline administration.
# Treatment groups received five IV bolus injections of 10 or 30 μg BNT142 (approximately 0.4 and 1.2 mg/kg, respectively) or 30 μg Luc_RNA-LNP at a weekly interval. Serum samples were prepared from blood drawn from the animals at 6 h after (tmax) and 24 h prior to (last detectable concentration [Ctrough]) each BNT142 administration. […] The last blood samples were drawn 816 h (34 days) after the first injection.
# [4] = Anti-drug antibody (ADA) sandwich immunoassay in mouse serum; assay type: in vivo, Balb/cJRj mice; settings: 30 μg RNA-LNP IV single dose; compared to RiboMab_712/711
# Procedure: Four female Balb/cJRj mice received an IV single dose of 30 μg RNA-LNP per mouse (˜1.4 mg/kg). Serum was sampled pre- and 6, 24, 48, 96, 168, 216, 265 and 528 hours (0.25 to 22 days) post-administration.
# Anti-RiboMab02.1 and anti-RiboMab_712/711 drug antibodies (ADAs) in mouse sera were determined using a Gyros xPand™ XPA1025 ELISA device from Gyros Protein Technologies AB. Sandwich immunoassay was processed on a Gyrolab Bioaffy 200 CD.
# Anti-RiboMab ADAs were captured using 100 μg/mL biotinylated drug antibody. Serum ADA levels were detected with 25 nM Alexa Fluor 647-conjugated AffiniPure goat anti-mouse IgG, Fc fragment specific antibody. Data were generated using the 200-3W-002-A method and the results were analyzed using Gyrolab Evaluator software.
# The positive ADA response was determined according to the floating cut-point. Therefore, the cut-point was calculated using the response of the negative sera (pre-bleeds) and the formula, normalization factor (NF)+mean negative controls (NC).
# NF=X*SD of the negative samples; X=1.645; SD=standard deviation of the negative sera (pre-bleeds); NC=3 negative controls (pooled negative sera).
# CLDN6 = target: T2, CLDN6 (Homo sapiens, UniProt P56747); assay: Flow cytometric binding assay, HEK-293T-17 CLDN6 transductants; settings: 10 μg/mL RiboMab02.1 in HEK-293T-17 supernatant
# T2 construct: expressed in transfected cells
# T2 sequence (P56747 1-220): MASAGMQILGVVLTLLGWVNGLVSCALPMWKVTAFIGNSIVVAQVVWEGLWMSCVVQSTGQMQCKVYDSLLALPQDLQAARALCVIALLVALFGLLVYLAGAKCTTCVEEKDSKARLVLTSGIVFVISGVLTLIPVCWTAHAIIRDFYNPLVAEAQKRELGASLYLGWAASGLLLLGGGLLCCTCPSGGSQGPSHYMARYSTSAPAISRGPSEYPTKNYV
# Excerpt: as §1
# [5] = 0.050 mg/kg, individual animals
substance,measurement,setting,value
RiboMab02.1: Fab-(scFv)2-based bispecific antibody (tribody) against CLDN6 and CD3 encoded by BNT142; SEQ ID NOs: 4 and 6; C53S,Effective t1/2 (mean),"[1]; 0.050 mg/kg, group, n=2",28.1 h
same,Cmax (mean),"[1]; 0.050 mg/kg, group, n=3",27.5 ng/mL
same,Ctrough (mean),"[1]; 0.050 mg/kg, group, n=3",3.6 ng/mL
same,tlast (median),"[1]; 0.050 mg/kg, group, n=3",72 h
same,Cmax,[1]; [5],32.8 ng/mL and 19.1 ng/mL and 30.7 ng/mL
same,Ctrough,[1]; [5],0.6 ng/mL and 5.6 ng/mL
same,tlast,[1]; [5],168 h and 72 h (2×)
same,Effective t1/2,"[1]; 0.050 mg/kg, individual animals, from MRT0-inf",28.1 h
same,Effective t1/2 (mean),"[1]; […], group, n=1",26.5 h
same,Effective t1/2 (mean),"[1]; […], group, n=3",36.6 h
same,Effective t1/2,"[1]; […], individual animals, calculated from MRT0-inf",26.5 h
same,inter-individual difference in concentration at Cmax,[1]; highest dose group,2 fold
same,binding to simian CD3,simian CD3,not simian CD3 was recognized
same,anticipated full clearance from the human body (five half-lives),[2],135 to 185 h
same,cytokine induction,human PBMCs; absence of CLDN6-positive PA-1 target cells,no cytokine induction was observed
same,IL-6 induction,"human PBMCs; absence of target cells, highest concentration of RiboMab02.1",low induction of IL-6 seen with one donor
same,"release of IFN-γ, IL-1β, IL-2, IL-6, IL-10 and TNF-α","human PBMCs; presence of PA-1 target cells, dose- and donor-dependent",induced the release of all cytokines
same,RiboMab02.1 peak level (Cmax) in serum,"[3]; 10 μg BNT142 weekly x5, 6 h after last injection",up to 7.4 μg/mL
same,RiboMab02.1 translation between subsequent injections,[3]; either BNT142 dose,no loss in RiboMab02.1 translation
same,Ctrough lower than Cmax,[3]; within 7 days of each injection,approximately 130 fold
same,immunogenic potential (ADA response),[4],lower immunogenic potential
same,binding to CLDN6,CLDN6,bound specifically
